Data set [1] has as its system RTG-2 cells. Nature of the data set: Translocation mechanism study with uptake pathway inhibitors in RTG-2 cells. As to conditions: 80 μM dynasore, 1× Brefeldin A or 100 μM nystatin pre-incubation; 3 μM SpHtp1^24-68-mRFP 1 h at 18° C. Format: cell-based, rainbow trout. As for the experimental part:
Cell culture maintenance of fish RTG-2 (ATCC CCL-55) was done according to the manufacturer's or publisher's instructions. L-15 medium was supplemented with 10% FBS, 100 units/ml Penicillin and 100 μg/ml Streptomycin. Wells containing cover slips with attached cells of 80% confluent were washed 2× with HBSS before translocation experiments.
For experiments investigating translocation mechanism, cells were pre-incubated with various inhibitors (80 μM of dynasore, 1× Brefeldin A or 100 μM nystatin) for 1 h at 18° C., 2 h for dynasore (FIG. 2). Afterwards, 3 μM SpHtp1^24-68-mRPF were incubated for another 1 h at 18° C. For the time course experiment (FIG. 2) cells were pre-incubated with 10 μM dynasore and the incubation with 3 μM SpHtp1^24-68-mRPF at 18° C. stopped at the times as indicated. In order to investigate the influence of SpHtp1^24-198-His on the vesicle release of SpHtp3^21-211-RFP, 3 μM of each protein was pre-incubated in L-15 for 30 min at RT before added to the cells for the usual incubation of 1 h at 18° C.
(§1) After incubation human as well as fish cells were washed 3× with HBSS and fixed with 4% ice-cold PFA in PBST (PBS+0.1% tween) for 15 min at RT. Residual PFA was removed with 5× washing steps with PBS. Cells were mounted with Vectashield with DAPI. Samples were analysed by a Zeiss LSM710 confocal microscope or an epifluorescence microscope (Zeiss Imager M2 with metal halide light source). For quantification mean intensity or vesicles per cell were counted with ImageJ. A maximum of 5 cells were analysed from the same picture. Bars denote s.e.m of 50 cells counted per sample.

The test system of data set [2] is human A549 cells. As to the kind of experiment: Inhibitor studies of SpHtp1^24-68-mRFP translocation into A549 cells. Format: cell-based. As for the experimental part: (§2) Cell culture maintenance of human A549 cell, was done according to the manufacturer's or publisher's instructions. DMEM medium was supplemented with 10% FBS, 100 units/ml Penicillin and 100 μg/ml Streptomycin. Wells containing cover slips with attached cells of 80% confluent were washed 2× with HBSS before the translocation experiments.
For the inhibitor studies, A549 cells were pre-incubated with different concentrations of SCH-202676 (allosteric inhibitor via disulfhydryl group) as indicated for 1 h at 37° C. and after this incubated for another 1 h at 37° C. with 3 μM SpHtp1^24-68-mRPF.
as §1

The target in data set [3] is T1, β2-adrenergic receptor (Homo sapiens, UniProt P07550).
The subject of data set [4] is fish cells. As to the kind of experiment: Translocation into fish cells. The data set is classed as cell-based.
Data set [5] deals with human cells (such as HEK cells or the human epithelial lung cell line A549). Nature of the data set: Translocation into human cells. Format: cell-based.
For data set [6], the system named is human A549 cells. Nature of the data set: Translocation of SpHtp1^24-68-mRFP into human A549 cells. Format: cell-based. Particulars: see FIG. 2A, 2C. As for the experimental part:
as §2
For translocation experiments using SpHtp1-coupled microparticles (FIG. 1), 300 μg carbon beads were pre-incubated with 3 μM SpHtp1^24-68-mRPF in 300 μl DMEM without Fetal Calf Serum for 1 h at 37° C. on a rotator to couple the SpHtp1 translocation sequence to the particles. […] Following coupling, the supplemented medium was applied to the cells for 1 h at 37° C. For translocation experiments using SpHtp1^24-68-mRPF (FIG. 2) cells were incubated with 3 μm SpHtp1^24-68-mRPF for 1 h at 37° C.
as §1

Data set [7] relates to SpHtp3. Nature of the data set: Protein cross linking of SpHtp1 and SpHtp3. Format: binding, Saprolegnia parasitica. Particulars: PFA cross link; FIG. 5E. The protocol: In order to detect a direct interaction, 10 μg of SpHtp1 and 10 μg of SpHtp3 or each protein alone were pre-incubated in PBS (total: 15 μl) for 15 min at RT. For cross linking 15 μl ice-cold 4% PFA/PBS (final concentration: 2%) was added and incubated for 10 min at RT. The reaction was stopped with 7 μl Laemmli loading dye and subsequent heating to 65° C. for 10 min. Complex formation was investigated by SDS-PAGE and confirmed by LC-MS/MS.

For data set [8], the system named is cells. Nature of the data set: Cytotoxic effects, cell morphology and viability after extended incubation. The data set is classed as cell-based. As to conditions: extended incubation periods of up to 24 hours.
Data set [9] has as its target T1, β2-adrenergic receptor. Nature of the data set: Co-immunoprecipitation with anti-β2 adrenoceptor antibody. Format: binding. More on the design: confluent A549 cells from a 75 cm^2 flask where detached and resuspended in 500 μl PBS; The cells were lysed by sonication; endogenous in cells; host or cells: A549 (human lung epithelial cell line), sonicated lysate supernatant. Particulars: A549 lysate, 10 μM SpHtp1^24-68-RFP; FIG. 3C. As for the experimental part:
For co-immunoprecipitation (FIG. 3) confluent A549 cells from a 75 cm^2 flask where detached and resuspended in 500 μl PBS. The cells were lysed by sonication (3×30 sec, 30% intensity, 1 min break on ice) and cell debris removed by centrifugation (16,000×g, 25 min, 4° C.). The supernatant was supplemented with 10 μM SpHtp1^24-68-RFP and 2.5 μg of an anti-82 adrenoceptor and incubated overnight on rotator at 4° C. The next day 200 μl PBS-equilibrated protein G/A beads were added for 2.5 h on rotator at 4° C. After, beads were washed 5 times with 1 ml PBS each. The elution was done with SDS sample buffer and boiling at 95° C. for 10 min.
For the immunoblot, samples were transferred to a nitrocellulose membrane and blocked with 5% milk powder in PBST (PBS+0.1% tween) for 1 h at RT. Incubation of the first antibody (anti-(32 adrenoceptor, 1:200) was done overnight on rotator at 4° C. Excess of antibody was removed by 3 washing steps with PBST, 5 min each. The secondary antibody (anti-rabbit HRP-coupled, 1:1000) was incubated for 1 h at RT in PBST with 5% milk powder. The membrane was washed 4 times (2×PBST and 2×PBS) before the bands were visualised with an ECL substrate and a developer.

In the case of `C[C@H]1CCC/C=C/[C@@H]2C[C@H](O)C[C@H]2[C@H](O)/C=C/C(=O)O1` [Brefeldin A], in data set [1], the “effect on SpHtp1^24-68-mRFP translocation” value is reported as “no effect”.
As to `CN=c1nc(-c2ccccc2)n(-c2ccccc2)s1` [SCH-202676], in [2] (10 μM SCH-202676, FIG. 3A), the “binding of SpHtp1^24-68-mRFP to the cells after pre-incubation with inhibitor” value was “not influenced” and the “translocation of SpHtp1^24-68-mRFP into cells after pre-incubation with inhibitor” value is “inhibited”. The “concentration dependence of inhibition of translocation” value in data set [2] (different concentrations, 1 h at 37° C., FIG. 3B) is recorded as “concentration-dependent”.
As to `CNCC(O)c1ccc(O)c(O)c1` (stereo not drawn) [adrenalin], the “effect of endogenous receptor ligands on the uptake of SpHtp1” value in data set [2] is listed as “do not have an effect”.
Take `O=C(N/N=C/c1ccc(O)c(O)c1)c1cc2ccccc2cc1O` [dynasore]: in data set [1], the “effect on SpHtp1^24-68-mRFP translocation” value is reported as “accumulation of red fluorescence at the membrane”.
Regarding `NC[C@H](O)c1ccc(O)c(O)c1` [noradrenalin], the “effect of endogenous receptor ligands on the uptake of SpHtp1” value in [2] is listed as “do not have an effect”.
As to `C[C@@H]1[C@H](O)[C@@H](C)/C=C/C=C/CC/C=C/C=C/C=C/C=C/C(O[C@H]2O[C@H](C)[C@@H](O)[C@H](N)[C@@H]2O)CC2O[C@](O)(CC(O)C(O)CCC(O)CC(O)CC(O)CC(=O)O[C@H]1C)CC(O)C2C(=O)O` (stereo partly drawn) [nystatin], the “effect on SpHtp1^24-68-mRFP translocation” value in data set [1] is “no effect”.
For SpHtp1^24-68-mRFP, the uptake into the cell, EC50 in [3] worked out at 1230 nM.

B1: SpHtp1a: SpHtp1 homolog shown in FIG. 6 (protein)
chain: MRIYHPLTLAALCVVLHESLGAAQHSNNVARLEHYSVAEIEHWEKRHLRNSDSRGHRHHAHHGQVIDKENNNSQEQATTGNSVETNQVPFTQPTKDKTASIKTAVFKLLRENKLKTKNAGNGHAHDDDDDDDSNFSDDDVPTNAPTGAPTGAPTDAPTNAPTDAPTDAPTDAPTDAPTDAPTDAPTDAPTTLPPMPRRRSHRCPDRHSHRCDPRRTHGCPD
modifications: SpHtp1a (1-221)
Regarding B1, the “translocation into fish cells” value in data set [4] was “able to translocate into both fish and human cells”. Moreover, in data set [5], the “translocation into human cells” value is “able to translocate into both fish and human cells”.

B2: SpHtp1: putative effector protein from the fish pathogenic oomycete Saprolegnia parasitica, full-length 198 amino acids (protein)
chain: MRIHHPLTLAALCVVLHESLGAAQHSNNVARLEHYRIAEIEHWEKRHLRSDSRGHRHHAHHGQVIDKENNNSQEQATTGNSVETNQVPSTEPTKDKTTPMKNALFKLFREKKLKTKNAGNGHAHDDDDDSDFSDDDVPTNAPTDAPTGAPTDAPTDAPTVAPTDAPTDAPTEAPTNAPTGTDAPTDAPTDAQVVPTFD
modifications: SpHtp1 (1-198)
Consider B2, for which, in data set [6] (cell line not given, read-out: uptake into the cell, EC50), the EC50 (as a rule, the concentration giving half of the maximal effect) turned out to be 1230 nM. Moreover, in data set [6], the “time of binding of SpHtp1 to the cell surface” value is 5 to 10 min and the “time to significant uptake into the cell” value is 20 to 30 min. Also, the “in vitro complex formation after cross link (SDS-PAGE, LC-MS/MS)” value in data set [7] is on record as “additional band for a cross-linked SpHtp1-SpHtp3 complex”. In addition, the “cytotoxic effects, cell morphology, viability” value in [8] was “do not have any immediate cytotoxic effects on cells, and do not alter cell morphology or viability”. In data set [5] (via the β-adrenoceptor), the “entry into human cells” value is “able to enter human cells”. Further, the “interaction with the β2-adrenergic receptor by co-immunoprecipitation” value in data set [9] is “at least indirect interaction”.
